Results on 5 molecules are retold here after patent US20240150491A1 (Genentech, published 2024).

Where a chain is given by its changes, count along the chain named. Bounds are passed on as bounds.

Sequences and labels used below:
T1: human KLK5 (human, UniProt Q9Y337 67-293)
T1 sequence: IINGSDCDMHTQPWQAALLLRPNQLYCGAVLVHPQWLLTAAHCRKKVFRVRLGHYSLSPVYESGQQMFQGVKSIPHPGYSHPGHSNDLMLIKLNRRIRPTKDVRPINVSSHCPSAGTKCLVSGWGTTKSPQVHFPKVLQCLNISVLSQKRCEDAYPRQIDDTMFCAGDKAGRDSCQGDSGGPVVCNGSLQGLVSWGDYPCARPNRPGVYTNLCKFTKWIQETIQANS

T2: cynomolgus monkey KLK5 (cynomolgus monkey, UniProt Q9Y337 67-293 (human entry))
T2 chain: T1 sequence with M9E, R21G, A29G, V71I, R98H, P99S, K128R, K169E, R202K

B1: 14H11 (antibody, V domains shown)
VH: QSLEESGGDLVKPGASLTLTCTASGFSFSSSYYMCWVRQAPGKGLEWIASIYAGSSGAPYYAGWAKGRFTISKTSSTAVTLQMSSLTAADTATYFCAREGFAETGGYGYAAYFNLWGPGTLVTVSS
VL: AIEMTQSPPSLSASVGETVRIRCLASEDIASSVSWYQQKPGKPPTLLIYGASNLESGVPPRFTGSGSGTDYTLTIGGVQAEDAATYYCLGGYSYSSTGTAFGAGTKVEIK
B2: hu.10C5VY.hu14H11c.L2H11 WT (bispecific antibody, human IgG1, kappa, N297G)
heavy 1: not shown
light 1: DIQMTQSPSSLSASVGDRVTITCLASEDIASSVSWYQKKPGKAPKLLIYGASNLESGVPSRFSGSGSGTDYTLTISSLQPEDFATYYCLGGYSYSSTGTAFGGGTKVEIKRTVAAPSVFIFPPSDEQLKSGTASVECLLNNFYPREAKVQWKVDNALQSGNSQESVTEQDSKDSTYSLSSTLTLSKADYEKHKVYACEVTHQGLSSPVTKSFNRGEC
heavy 2: EVQLVESGGGLVQPGGSLRLSCAASGFSLSSYGVTWVRKAPGKGLEWIGYITSVYGVSYYASWAKSRSTISRDTSKNTVYLQMGSLRAEDMAVYYCARENPDYGYAYDAWGQGTTVTVSSASTKGPSVFPLAPSSKSTSGGTAALGCLVKDYFPEPVTVSWNSGALTSGVHTFPAVLQSSGLYSLESVVTVPSSSLGTQTYICNVNHKPSNTKVDKKVEPKSCDKTHTCPPCPAPELLGGPSVFLFPPKPKDTLMISRTPEVTCVVVDVSHEDPEVKFNWYVDGVEVHNAKTKPREEQYGSTYRVVSVLTVLHQDWLNGKEYKCKVSNKALPAPIEKTISKAKGQPREPQVYTLPPSREEMTKNQVSLSCAVKGFYPSDIAVEWESNGQPENNYKTTPPVLDSDGSFFLVSKLTVDKSRWQQGNVFSCSVMHEALHNHYTQKSLSLSPGK
light 2: AIRMTQSPSSFSASTGDRVTITCQASESISNELSWYQEKPGKAPKLLIYYASTLASGVPSRFSGSGSGTDFTLTISSLQPEDFATYYCAQGYGSSGVENVFGGGTKVEIKRTVAAPSVFIFPPSDEQLKSGTASVKCLLNNFYPREAKVQWKVDNALQSGNSQESVTEQDSKDSTYSLSSTLTLSKADYEKHKVYACEVTHQGLSSPVTKSFNRGEC
B3: hu.10C5VY.hu14H11c.L2H11 LS (bispecific antibody, human IgG1, kappa, N297G)
heavy 1: EQQLVESGGGLIQPGGSLRLSCAASGFSFSSSYYMSWVREAPGKGLEWVSSIYAGSSGAPYYAGWAKGRFTISRDNSKNTLYLQMNSLRAEDTAVYYCAREGFAETGGYGYAAYFNLWGPGTLVTVSSASTKGPSVFPLAPSSKSTSGGTAALGCLVKDYFPEPVTVSWNSGALTSGVHTFPAVLQSSGLYSLKSVVTVPSSSLGTQTYICNVNHKPSNTKVDKKVEPKSCDKTHTCPPCPAPELLGGPSVFLFPPKPKDTLMISRTPEVTCVVVDVSHEDPEVKFNWYVDGVEVHNAKTKPREEQYGSTYRVVSVLTVLHQDWLNGKEYKCKVSNKALPAPIEKTISKAKGQPREPQVYTLPPSREEMTKNQVSLWCLVKGFYPSDIAVEWESNGQPENNYKTTPPVLDSDGSFFLYSKLTVDKSRWQQGNVFSCSVLHEALHSHYTQKSLSLSPGK
light 1: B2 light 1
heavy 2: B2 heavy 2 with M431L, N437S
light 2: B2 light 2
B4: hu10C5VY (antibody, V domains shown)
VH: EVQLVESGGGLVQPGGSLRLSCAASGFSLSSYGVTWVRQAPGKGLEWIGYITSVYGVSYYASWAKSRSTISRDTSKNTVYLQMGSLRAEDMAVYYCARENPDYGYAYDAWGQGTTVTVSS
VL: AIRMTQSPSSFSASTGDRVTITCQASESISNELSWYQQKPGKAPKLLIYYASTLASGVPSRFSGSGSGTDFTLTISSLQPEDFATYYCAQGYGSSGVENVFGGGTKVEIK
B5: hu.14H11c.L2H11-hIgG1 (antibody, V domains shown)
VH: EQQLVESGGGLIQPGGSLRLSCAASGFSFSSSYYMSWVRQAPGKGLEWVSSIYAGSSGAPYYAGWAKGRFTISRDNSKNTLYLQMNSLRAEDTAVYYCAREGFAETGGYGYAAYFNLWGPGTLVTVSS
VL: DIQMTQSPSSLSASVGDRVTITCLASEDIASSVSWYQQKPGKAPKLLIYGASNLESGVPSRFSGSGSGTDYTLTISSLQPEDFATYYCLGGYSYSSTGTAFGGGTKVEIK

T3 sequence (P49862 30-253): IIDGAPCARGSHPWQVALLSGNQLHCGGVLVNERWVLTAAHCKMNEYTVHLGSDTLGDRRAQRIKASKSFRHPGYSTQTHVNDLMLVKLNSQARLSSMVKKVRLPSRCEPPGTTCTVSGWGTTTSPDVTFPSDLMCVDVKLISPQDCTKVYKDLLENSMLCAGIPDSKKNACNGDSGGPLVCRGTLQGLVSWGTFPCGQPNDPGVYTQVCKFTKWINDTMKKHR
T4 sequence (P49862 other isoform, or with tags, fused parts or gaps): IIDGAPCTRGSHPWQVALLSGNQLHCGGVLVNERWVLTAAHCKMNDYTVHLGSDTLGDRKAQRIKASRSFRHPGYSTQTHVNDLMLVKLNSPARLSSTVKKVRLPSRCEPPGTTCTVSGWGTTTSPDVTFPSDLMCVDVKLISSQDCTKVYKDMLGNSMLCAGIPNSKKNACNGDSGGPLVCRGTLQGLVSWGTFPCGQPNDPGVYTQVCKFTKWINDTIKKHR

The first assay has as its target T3, human KLK7 (SEQ ID NO: 4 plus a C-terminal FLAG tag) (human, UniProt P49862 30-253). The assay can be described thus: cell-based or functional assay.
B1: the “IC50, inhibition of KLK7 cleavage of MCA peptide substrate (bivalency not accounted for)” value worked out at 0.11 nM.

The next assay concerns the target T4, cyno KLK7 (SEQ ID NO: 6 plus a C-terminal FLAG tag) (cynomolgus monkey, UniProt P49862 30-253 (human entry)). Nature of the assay: cell-based or functional assay.
As for B1, the “IC50, inhibition of KLK7 cleavage of MCA peptide substrate (bivalency not accounted for)” value stood at 0.15 nM.

The next assay has as its target T3, human KLK7 (SEQ ID NO: 4 plus a …). Nature of the assay: cell-based or functional assay. This is another data set of the same source.
Consider B2, for which the “IC50, inhibition of KLK7 cleavage of Mca-RPKPVE-Nval-WRK(Dnp) (bivalency corrected)” value was 0.37 nM.
In the case of B3, the “IC50, inhibition of KLK7 cleavage of Mca-RPKPVE-Nval-WRK(Dnp) (bivalency corrected)” value came to 0.34 nM.
In the case of B4, the “IC50, inhibition of KLK7 cleavage of Mca-RPKPVE-Nval-WRK(Dnp) (bivalency corrected)” value was greater than 10 nM.
On the same count and under the same terms, in the case of B5 it was 0.29 nM.

The target in another assay is T1, human KLK5. The assay can be described thus: cell-based or functional assay.
In the case of B2, the “IC50, inhibition of KLK5 cleavage of Boc-Val-Pro-Arg-AMC (bivalency corrected)” value came to 0.67 nM.
The same measure, in the same setting: in the case of B3 it was 0.54 nM.
As for B4, the “IC50, inhibition of KLK5 cleavage of Boc-Val-Pro-Arg-AMC (bivalency corrected)” value stood at 0.46 nM.
For the molecule B5, the “IC50, inhibition of KLK5 cleavage of Boc-Val-Pro-Arg-AMC (bivalency corrected)” value is greater than 10 nM.

A further assay addresses T2, cynomolgus monkey KLK5. The assay can be described thus: cell-based or functional assay.
In the case of B2, the “IC50, inhibition of KLK5 cleavage of Boc-Val-Pro-Arg-AMC (bivalency corrected)” value was found to be 0.73 nM.
In the case of B3, the “IC50, inhibition of KLK5 cleavage of Boc-Val-Pro-Arg-AMC (bivalency corrected)” value worked out at 0.58 nM.
Same read-out and setting: as for B4, the figure is 0.56 nM.
On to B5, for which the “IC50, inhibition of KLK5 cleavage of Boc-Val-Pro-Arg-AMC (bivalency corrected)” value is greater than 10 nM.

Another assay addresses T4, cyno KLK7 (SEQ ID NO: 6 plus a …). The assay can be described thus: cell-based or functional assay. This is another data set of the same source.
On to B2, for which the “IC50, inhibition of KLK7 cleavage of Mca-RPKPVE-Nval-WRK(Dnp) (bivalency corrected)” value was 0.37 nM.
As for B3, the “IC50, inhibition of KLK7 cleavage of Mca-RPKPVE-Nval-WRK(Dnp) (bivalency corrected)” value stood at 0.36 nM.
On to B4, for which the “IC50, inhibition of KLK7 cleavage of Mca-RPKPVE-Nval-WRK(Dnp) (bivalency corrected)” value is greater than 10 nM.
The same measure, in the same setting: in the case of B5 it was 0.29 nM.
